Measurements published in US20260008853A1 (BEONE MEDICINES I, published 2026).

B1: LS21 (scFv)
scFv: EVQLVQSGAEVKKPGESLKVSCKASGYTFTSYYMHWVRQAPGQGLEWMGIINPSGGSTSYAQKFQGRVTMTRDTSTSTVYMELSSLRSEDTAVYYCARGSAYYYDFADYWGQGTLVTVSSGGGGSGGGGSGGGGSQPVLTQPSSVSVAPGQTATISCGGHNIGSKNVHWYQQRPGQSPVLVIYQDNKRPSGIPERFSGSNSGNTATLTISGTQAMDEADYYCQVWDNYSVLFGGGTKLTVL
notes: also called positive control

Experiments:
[1] = biological target: Human CD16A (V158) on NK92mi/CD16A V158 cells (human) (UniProt P08637); assay: flow cytometry on NK92mi/CD16A V158 cells, anti-human IgG Fc detection
[2] = biological target: Human CD16B (NA1) on NK92mi/CD16B (NA1) cells (human) (UniProt O75015); assay: flow cytometry on NK92mi/CD16B(NA1) cells, anti-human IgG Fc detection
[3] = biological target: Human CD16B (NA2) on NK92mi/CD16B (NA2) cells (human) (UniProt O75015); assay: flow cytometry on NK92mi/CD16B(NA2) cells, anti-human IgG Fc detection
human CD16B-His6 (SH) = biological target: T1, human CD16B-His6 (SH) (human, UniProt O75015 17-200); assay: antigen ELISA, coated human CD16B-His6 (SH), HRP anti-human IgG
T1 construct: Bought ECD fragment (Sino Biologics); also called CD16B SH allotype; human CD16B (SH); not shown: six-histidine tag
T1 sequence (O75015 17-200): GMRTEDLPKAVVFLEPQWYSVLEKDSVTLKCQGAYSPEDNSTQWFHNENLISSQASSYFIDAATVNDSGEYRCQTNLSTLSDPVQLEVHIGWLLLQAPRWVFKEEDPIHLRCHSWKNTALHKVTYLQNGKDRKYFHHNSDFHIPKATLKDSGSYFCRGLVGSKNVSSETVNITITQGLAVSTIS

Human CD16B (NA2) on NK92mi/CD16B (NA2) cells (human), sequence (O75015 17-200 N65S limits assumed): as the sequence (O75015 17-200) above, with N49S counted along it
Human CD16B (NA1) on NK92mi/CD16B (NA1) cells (human), sequence (O75015 other isoform, or with tags, fused parts or gaps limits assumed): as the sequence (O75015 17-200) above, with S20R, N66D, I90V counted along it
Human CD16A (V158) on NK92mi/CD16A V158 cells (human), sequence (P08637 17-254 F176V limits assumed): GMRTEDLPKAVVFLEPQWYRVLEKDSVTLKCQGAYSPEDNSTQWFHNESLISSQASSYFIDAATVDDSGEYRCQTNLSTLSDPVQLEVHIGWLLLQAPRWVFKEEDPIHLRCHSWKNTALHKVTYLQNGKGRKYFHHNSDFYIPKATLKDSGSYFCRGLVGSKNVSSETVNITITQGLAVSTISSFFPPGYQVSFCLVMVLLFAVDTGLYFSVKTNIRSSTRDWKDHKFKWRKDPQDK

| Molecule | EC50 [1] | EMAX [1] | EC50 [2] | EMAX [2] | EC50 [3] | EMAX [3] | binding result (human CD16B-His6 (SH)) |
| --- | --- | --- | --- | --- | --- | --- | --- |
| Human IgG (antibody) | 0.0112 µg/mL | 7.55 | 10.3 µg/mL | 7.46 | 0.314 µg/mL | 7.66 |  |
| B1 |  |  |  |  |  |  | no binding (tested: 1 ug/ml) |
